Results: patent publication US20130295102A1 (Novartis, published 2013)

Assays:
Cynomolgus Factor P [1] = molecular target: T1, Cynomolgus Factor P (cynomolgus); experiment: Biacore SPR, captured Factor P
T1 construct: Purified from cynomolgus serum for SET/Biacore; Factor P of cynomolgus serum in the functional assays; also called Cyno Factor P; cyno FP

Human Factor P [2] = molecular target: T2, Human Factor P (human, UniProt P27918 29-469); experiment: Biacore SPR, captured Factor P
T2 construct: Bought protein (Complement Technology cat# A139) in SET and Biacore; Factor P of human serum in the functional assays; also called FP; human FP
T2 sequence (P27918 29-469 limits assumed): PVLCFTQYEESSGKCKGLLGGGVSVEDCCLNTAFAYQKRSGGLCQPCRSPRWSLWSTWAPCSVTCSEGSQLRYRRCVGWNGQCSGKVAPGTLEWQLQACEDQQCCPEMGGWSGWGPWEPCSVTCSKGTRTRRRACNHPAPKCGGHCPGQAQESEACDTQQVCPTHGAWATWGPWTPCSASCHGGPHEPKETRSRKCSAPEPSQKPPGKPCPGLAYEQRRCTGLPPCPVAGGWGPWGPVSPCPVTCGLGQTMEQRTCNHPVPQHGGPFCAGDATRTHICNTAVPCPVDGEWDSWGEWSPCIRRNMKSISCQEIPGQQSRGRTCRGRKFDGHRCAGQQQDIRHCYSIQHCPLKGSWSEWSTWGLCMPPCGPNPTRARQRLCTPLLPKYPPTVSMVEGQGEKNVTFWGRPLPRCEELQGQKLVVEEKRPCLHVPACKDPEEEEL

Cynomolgus Factor P [3] = molecular target: T1, Cynomolgus Factor P; experiment: SET, solution equilibrium titration
Protocol: (§1) In SET, a constant amount of antibody is incubated with different concentrations of antigen until equilibrium is reached. The concentration of free antibody in the equilibrated solution is determined by applying the solution on an antigen coated MSD™ plate (Meso Scale Discovery™) followed by incubation with an ECL-labeled secondary antibody and measurement of signal intensity. At low antigen concentrations, a strong signal is achieved (high concentration of free antibody which binds to the antigen on the plate) whereas for high antigen concentration, the antibody is completely antigen-captured, resulting in a low signal. If a sufficient number of antigen concentrations in a matching range are available, the titration curve allows for a reasonable determination of the affinity, using the appropriate fit model. […] The constant concentration of antibody applied in the assay should be in the range of, or below, the KD (Table 4).
(§2) Human Factor P (Complement Technology cat#: A139) and Cyno Factor P purified from cyno serum (protocol adapted from Nakano, et al., (1986) J Immunol Methods 90:77-83) were coated on standard binding MSD plates (Meso-Scale Discovery, 384-well: MSD cat#: L21XA, 96-well: MSD cat#: L15XA) at 0.2-0.3 μg/ml in 25 μl PBS and incubated overnight at 4° C. Factor P inhibitors were diluted to a fixed concentration (1 pM or 10 pM) in incubation buffer (PBS with 2% BSA (Sigma cat#: A4503) and 1% Tween20 and 1% Triton-X (Sigma cat#: 234729)), and added to a serial dilution of Factor P (human or cyno) in incubation buffer. Samples were allowed to reach equilibrium by incubation at RT overnight. Plates were washed 3× in wash buffer (PBS with 0.05% Tween20), and blocked with 100 μl incubation buffer at RT for 2 hrs. Plates were washed 3× in wash buffer. Sample containing Factor P inhibitors and Factor P titration were added to the plate (25 μl), and incubated at RT for 15 min. Plates were washed 3× in wash buffer. 25 μl detection antibody was added (Anti-Human (Goat) Sulfo-TAG, 1:1000 in incubation buffer, MSD cat#: R32AJ-1), and incubated at RT for 60 min. Plates were washed 3× in wash buffer, and 50 μl of 1×MSD Read buffer T was added (with surfactant, MSD cat#: R92TC-1). Plates were read on a MSD Spector Imager 6000.

Human Factor P [4] = molecular target: T2, Human Factor P; experiment: SET, solution equilibrium titration
Protocol: as §1, §2

Cynomolgus Factor P [5] = molecular target: T1, Cynomolgus Factor P; experiment: cell-based or functional assay
Human Factor P [6] = molecular target: T2, Human Factor P; experiment: cell-based or functional assay

Binder	Kd (Cynomolgus Factor P [1])	koff (Cynomolgus Factor P [1])	kon (Cynomolgus Factor P [1])	Kd (Human Factor P [2])	koff (Human Factor P [2])	kon (Human Factor P [2])	Kd (Cynomolgus Factor P [3])	Kd (Human Factor P [4])	MAC Deposition, 20% Serum EC50 (Cynomolgus Factor P [5])	Zymosan-C3b IC50 (nM), 10% serum (Cynomolgus Factor P [5])	MAC Deposition, 20% Serum EC50 (Human Factor P [6])	Zymosan-C3b IC50 (nM), 10% serum (Human Factor P [6])	Inhibition of C3a generation, 20% human serum (Human Factor P [6])	Hemolytic assay IC50 (nM), 10% serum (Cynomolgus Factor P [5])	Hemolytic assay IC50 (nM), 10% serum (Human Factor P [6])
NVS962-S (Fab, V domains shown, NVS962 with heavy chain N30 replaced with serine) VH: EVQLVQSGAEVKKPGSSVKVSCKASGGTFSSYAISWVRQAPGQGLEWMGRIIPIFGTANYAQKFQGRVTITADESTSTAYMELSSLRSEDTAVYYCARHGGYSFDSWGQGTLVTVSS VL: SYELTQPPSVSVAPGQTARISCSGDNLGSKYVDWYQQKPGQAPVLVIYSDNNRPSGIPERFSGSNSGNTATLTISGTQAEDEADYYCQTYTSGNNYLVFGGGTKLTVLG	0.127 nM	6.66e-05 s⁻¹	524000 M⁻¹ s⁻¹	0.161 nM	0.000117 s⁻¹	730000 M⁻¹ s⁻¹	0.141 nM	0.156 nM	15.6 nM	1.94 nM	6.53 nM	1.53 nM	–	12 nM	8.21 nM
NVS965 (Fab, V domains shown, Disulfide-bridged Fab; also called Fab NVS965) VH: EVQLVQSGAEVKKPGSSVKVSCKASGGTFNSYAISWVRQAPGQGLEWMGRIIPIFGTANYAQKFQGRVTITADESTSTAYMELSSLRSEDTAVYYCARHGGYSFDSWGQGTLVTVSS VL: SYVLTQPPSVSVAPGKTARISCSGDNLGSKYVDWYQQKPGQAPVLVIYSDNNRPSGIPERFSGSNSGNTATLTISGTQAMDEADYYCATYDSSPRTEVFGGGTKLTVLG	0.028 nM	6.22e-05 s⁻¹	2.24e+06 M⁻¹ s⁻¹	0.016 nM	4.1e-05 s⁻¹	2.65e+06 M⁻¹ s⁻¹	0.014 nM	0.036 nM	22.2 nM	6.36 nM	17.3 nM	1.54 nM	31.3 nM	13.2 nM	7.53 nM
NVS962-T (Fab, V domains shown, NVS962 with heavy chain N30 replaced with threonine; also called NSV962-T) VH: EVQLVQSGAEVKKPGSSVKVSCKASGGTFTSYAISWVRQAPGQGLEWMGRIIPIFGTANYAQKFQGRVTITADESTSTAYMELSSLRSEDTAVYYCARHGGYSFDSWGQGTLVTVSS VL: SYELTQPPSVSVAPGQTARISCSGDNLGSKYVDWYQQKPGQAPVLVIYSDNNRPSGIPERFSGSNSGNTATLTISGTQAEDEADYYCQTYTSGNNYLVFGGGTKLTVLG	0.175 nM	8.56e-05 s⁻¹	488000 M⁻¹ s⁻¹	0.131 nM	8.35e-05 s⁻¹	639000 M⁻¹ s⁻¹	0.354 nM	0.251 nM	5.42 nM	3.1 nM	6.61 nM	1.75 nM	–	12.5 nM	9.31 nM
NVS962-S31A (Fab, V domains shown, NVS962 with heavy chain serine 31 replaced with alanine) VH: EVQLVQSGAEVKKPGSSVKVSCKASGGTFNAYAISWVRQAPGQGLEWMGRIIPIFGTANYAQKFQGRVTITADESTSTAYMELSSLRSEDTAVYYCARHGGYSFDSWGQGTLVTVSS VL: SYELTQPPSVSVAPGQTARISCSGDNLGSKYVDWYQQKPGQAPVLVIYSDNNRPSGIPERFSGSNSGNTATLTISGTQAEDEADYYCQTYTSGNNYLVFGGGTKLTVLG	0.234 nM	8.7e-05 s⁻¹	372000 M⁻¹ s⁻¹	0.225 nM	0.000113 s⁻¹	504000 M⁻¹ s⁻¹	0.189 nM	0.189 nM	7.86 nM	3.12 nM	9.96 nM	1.15 nM	–	11.6 nM	12.8 nM
NVS963 (Fab, V domains shown, Disulfide-bridged Fab; also called Fab NVS963) VH: EVQLVQSGAEVKKPGSSVKVSCKASGGTFSSYAISWVRQAPGQGLEWMGPINPYYGDAIYAQKFQGRVTITADESTSTAYMELSSLRSEDTAVYYCARYYSDYMDYWGQGTLVTVSS VL: QSVLTQPPSVSGAPGQRVTISCTGSSSNIGAGYDVHWYQQLPGTAPKLLIHDNSHRPSGVPDRFSGSKSGTSASLAITGLQSEDEADYYCASYDESAHSVFGGGTKLTVLG	0.17 nM	0.0002 s⁻¹	1e+06 M⁻¹ s⁻¹	0.09 nM	0.0001 s⁻¹	1e+06 M⁻¹ s⁻¹	0.115 nM	0.055 nM	–	9.75 nM	–	2.34 nM	65.1 nM	14.5 nM	10.1 nM

The next lines start with results.

Kd (Cynomolgus Factor P [1])	koff (Cynomolgus Factor P [1])	kon (Cynomolgus Factor P [1])	Kd (Human Factor P [2])	koff (Human Factor P [2])	kon (Human Factor P [2])	Kd (Cynomolgus Factor P [3])	Kd (Human Factor P [4])	MAC Deposition, 20% Serum EC50 (Cynomolgus Factor P [5])	Zymosan-C3b IC50 (nM), 10% serum (Cynomolgus Factor P [5])	MAC Deposition, 20% Serum EC50 (Human Factor P [6])	Zymosan-C3b IC50 (nM), 10% serum (Human Factor P [6])	Inhibition of C3a generation, 20% human serum (Human Factor P [6])	Binder	Hemolytic assay IC50 (nM), 10% serum (Cynomolgus Factor P [5])	Hemolytic assay IC50 (nM), 10% serum (Human Factor P [6])
0.0746 nM	0.000151 s⁻¹	2.17e+06 M⁻¹ s⁻¹	0.0514 nM	0.000103 s⁻¹	2.37e+06 M⁻¹ s⁻¹	0.044 nM	0.052 nM	11 nM	1.91 nM	13.8 nM	0.77 nM	–	NVS965-T (Fab, V domains shown, NVS965 with heavy chain N30 replaced with threonine) VH: EVQLVQSGAEVKKPGSSVKVSCKASGGTFTSYAISWVRQAPGQGLEWMGRIIPIFGTANYAQKFQGRVTITADESTSTAYMELSSLRSEDTAVYYCARHGGYSFDSWGQGTLVTVSS VL: SYVLTQPPSVSVAPGKTARISCSGDNLGSKYVDWYQQKPGQAPVLVIYSDNNRPSGIPERFSGSNSGNTATLTISGTQAMDEADYYCATYDSSPRTEVFGGGTKLTVLG	12.5 nM	7.15 nM
0.215 nM	0.000594 s⁻¹	2.77e+06 M⁻¹ s⁻¹	0.138 nM	0.000366 s⁻¹	2.65e+06 M⁻¹ s⁻¹	0.201 nM	0.301 nM	9.39 nM	3.3 nM	15.4 nM	1.64 nM	–	NVS965-Q (Fab, V domains shown, NVS965 with heavy chain N30 replaced with glutamine) VH: EVQLVQSGAEVKKPGSSVKVSCKASGGTFQSYAISWVRQAPGQGLEWMGRIIPIFGTANYAQKFQGRVTITADESTSTAYMELSSLRSEDTAVYYCARHGGYSFDSWGQGTLVTVSS VL: SYVLTQPPSVSVAPGKTARISCSGDNLGSKYVDWYQQKPGQAPVLVIYSDNNRPSGIPERFSGSNSGNTATLTISGTQAMDEADYYCATYDSSPRTEVFGGGTKLTVLG	14.7 nM	9.71 nM
0.06 nM	0.000163 s⁻¹	2.71e+06 M⁻¹ s⁻¹	0.027 nM	9.9e-05 s⁻¹	3.69e+06 M⁻¹ s⁻¹	0.036 nM	0.051 nM	8.12 nM	1.57 nM	7.32 nM	1.39 nM	–	NVS965-S (Fab, V domains shown, NVS965 with heavy chain N30 replaced with serine) VH: EVQLVQSGAEVKKPGSSVKVSCKASGGTFSSYAISWVRQAPGQGLEWMGRIIPIFGTANYAQKFQGRVTITADESTSTAYMELSSLRSEDTAVYYCARHGGYSFDSWGQGTLVTVSS VL: SYVLTQPPSVSVAPGKTARISCSGDNLGSKYVDWYQQKPGQAPVLVIYSDNNRPSGIPERFSGSNSGNTATLTISGTQAMDEADYYCATYDSSPRTEVFGGGTKLTVLG	12 nM	7.89 nM
0.21 nM	0.0002 s⁻¹	1e+06 M⁻¹ s⁻¹	0.16 nM	0.0003 s⁻¹	2e+06 M⁻¹ s⁻¹	0.04 nM	0.07 nM	–	6.62 nM	–	1.66 nM	41.1 nM	NVS966 (Fab, V domains shown, Disulfide-bridged Fab; also called Fab NVS966) VH: EVQLVQSGAEVKKPGESLKISCKGSGYSFTNYWIGWVRQMPGKGLEWMGRIDPGESLTNYAPSFQGQVTISADKSISTAYLQWSSLKASDTAMYYCARTGVADVDMPFAHWGQGTLVTVSS VL: SYVLTQPPSVSVAPGKTARISCSGDNLGSYYVNWYQQKPGQAPVLVIYGDSERPSGIPERFSGSNSGNTATLTISRAQAGDEADYYCGSWDITSFVFGGGTKLTVLG	13 nM	7.15 nM
